Reference: the supplement of paper PMC10126150
± gives the standard deviation of the averaged measurements.

Test system: ATP
Test: switch fluorescence ratio, 500 uM ATP over buffer (Cy3 cluster intensity, sum of 5 cycles each) (fold (ratio)); higher = stronger signal-on switching upon ATP binding; sequences stand for … in TCGTCGGCAGCGTCAGATGTGTATAAGAGACAGTTTTTTTTTTTTTTTTTTTTTTTTT…TC
Settings: aptamer strand: ATP DNA aptamer (quencher-CACCTGGGGGAGTATTGCGGAGGAAGG + anchor), 100 nM annealed; ATP concentration: 500 uM
Outline: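 Clusters carrying Cy3-labelled switching strands on a modified Illumina MiSeq flow-cell were annealed to 100 nM quencher-labelled ATP aptamer and imaged in selection buffer. They were imaged again after 15 min with 500 uM ATP at 22 °C, over five buffer/ATP cycles with NaOH stripping and re-annealing in between. For each cluster, the fluorescence ratio is the summed Cy3 intensity of the target cycles divided by that of the buffer cycles, averaged per switch-domain sequence. Clusters outside 100-1000 RFU were left out.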
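Also: ATP exposure 15 min at 22 °C before imaging.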

| Sequence | switch fluorescence ratio |
| --- | --- |
| CACACTCGCT | 1.01 ± 0.024 |
| CACAGTAAAC | 1.25 ± 0.11 |
| CACATAAAAG | 0.987 ± 0.027 |
| CACATCACTT | 1.43 ± 0.27 |
| CACCAGGGCA | 1.54 ± 0.066 |
| CACCCGTGCT | 1.09 ± 0.016 |
| CACCGGAGGG | 1.25 ± 0.4 |
| CACCTAAAAT | 1.03 ± 0.037 |
| CACCTCATAA | 1.06 ± 0.011 |
| CACCTCGGAC | 1.139 ± 0.0092 |
| CACCTCTTAC | 1.271 ± 0.0029 |
| CACCTGCCCC | 1.347 ± 0.011 |
| CACCTTTACA | 1.16 ± 0.034 |
| CACGAAAGGA | 1.07 ± 0.033 |
| CACGAGCGTT | 1.011 ± 0.0049 |
| CACGAGGGAG | 0.982 ± 0.022 |
| CACGATTACT | 1.281 ± 0.0018 |
| CACGCCTTAT | 1.034 ± 0.0043 |
| CACGGAAGGA | 1.065 ± 0.0079 |
| CACGGACCTA | 1.363 ± 0.012 |
| CACGGGCCCT | 1.02 ± 0.017 |
| CACGGGGCTT | 1.02 ± 0.021 |
| CACGGGGGAG | 1.005 ± 0.0096 |
| CACGGTTTCT | 1.09 ± 0.13 |
| CACGTCAACT | 1.32 ± 0.06 |

| Sequence | switch fluorescence ratio |
| --- | --- |
| CACGTCGGTA | 1.01 ± 0.015 |
| CACGTGGGAG | 1.04 ± 0.023 |
| CACGTTAGTT | 1.06 ± 0.06 |
| CACTAAATGT | 1 ± 0.035 |
| CACTAGCGGA | 1.05 ± 0.023 |
| CACTAGGGGG | 1.05 ± 0.0083 |
| CACTGAGATG | 1.01 ± 0.03 |
| CACTGCTTTA | 1.02 ± 0.037 |
| CACTGGGATT | 1.01 ± 0.018 |
| CACTGTCTGT | 0.98 ± 0.028 |
| CACTGTCTT | 0.991 ± 0.019 |
| CACTGTGACA | 1.083 ± 0.0052 |
| CACTTCCTTA | 1.098 ± 0.0081 |
| CACTTCGCCA | 2.12 ± 0.17 |
| CACTTCTGGC | 1.03 ± 0.011 |
| CACTTGATGT | 0.996 ± 0.023 |
| CACTTGGTGG | 0.96 ± 0.038 |
| CACTTTGTTT | 1.01 ± 0.066 |
| CACTTTTGTA | 1.01 ± 0.012 |
| CAGAAAAAAG | 1.01 ± 0.028 |
| CAGAAAAGCT | 1.07 ± 0.034 |
| CAGAACAAAA | 1.03 ± 0.035 |
| CAGAACCAGG | 1.24 ± 0.06 |
| CAGAAGACAG | 0.995 ± 0.071 |
| CAGAAGGGTG | 1.02 ± 0.011 |

| Sequence | switch fluorescence ratio |
| --- | --- |
| CAGAATTGAG | 0.995 ± 0.0026 |
| CAGACGTAGG | 1.01 ± 0.056 |
| CAGAGCCATA | 1.05 ± 0.013 |
| CAGAGGAGTT | 1.01 ± 0.051 |
| CAGAGGGC | 1.04 ± 0.04 |
| CAGAGTAGGT | 1.02 ± 0.048 |
| CAGAGTATCG | 1 ± 0.021 |
| CAGAGTCGGT | 1 ± 0.024 |
| CAGATCTGAA | 0.952 ± 0.07 |
| CAGATGCCTC | 1.012 ± 0.0086 |
| CAGATTATTT | 0.99 ± 0.015 |
| CAGATTTGCT | 0.983 ± 0.013 |
| CAGCAAATGG | 1.47 ± 0.26 |
| CAGCACAGAT | 1.015 ± 0.0019 |
| CAGCATTGGG | 0.978 ± 0.038 |
| CAGCCCGATC | 1.22 ± 0.032 |
| CAGCCCTTGA | 1.024 ± 0.0083 |
| CAGCCGGGGA | 1.02 ± 0.019 |
| CAGCGAGGTC | 1.05 ± 0.012 |
| CAGCGCGTGC | 1.01 ± 0.051 |
| CAGCGGGCGA | 1.01 ± 0.032 |
| CAGCGGGGCA | 1.017 ± 0.0072 |
| CAGCGGGGGG | 1.01 ± 0.034 |
| CAGCGGGGTG | 1.11 ± 0.15 |
| CAGCGTCTTT | 0.994 ± 0.012 |

| Sequence | switch fluorescence ratio |
| --- | --- |
| CAGCGTGGGG | 1.022 ± 0.0092 |
| CAGCTAAAGT | 1.009 ± 0.0017 |
| CAGCTATGTG | 0.973 ± 0.011 |
| CAGCTGGGGT | 1.01 ± 0.039 |
| CAGCTTGGA | 1.01 ± 0.029 |
| CAGCTTTTCG | 0.998 ± 0.046 |
| CAGGACATTA | 0.994 ± 0.058 |
| CAGGAGTACA | 1.03 ± 0.012 |
| CAGGAGTAGC | 1.05 ± 0.018 |
| CAGGAGTTGA | 1.01 ± 0.025 |
| CAGGCATGCG | 1.01 ± 0.037 |
| CAGGCGTTGC | 1.17 ± 0.19 |
| CAGGCTTGG | 0.994 ± 0.011 |
| CAGGCTTGTA | 1.004 ± 0.0098 |
| CAGGGAAAAC | 1.03 ± 0.034 |
| CAGGGAAAAG | 0.991 ± 0.032 |
| CAGGGAAGCG | 0.991 ± 0.018 |
| CAGGGACAAT | 1.04 ± 0.023 |
| CAGGGAGAAT | 1.01 ± 0.019 |
| CAGGGAGCTG | 1.01 ± 0.027 |
| CAGGGATAGG | 1.019 ± 0.0092 |
| CAGGGATGCT | 1.02 ± 0.035 |
| CAGGGATGGG | 0.961 ± 0.023 |
| CAGGGCAAGC | 1.36 ± 0.057 |
| CAGGGCAGGG | 0.951 ± 0.028 |

| Sequence | switch fluorescence ratio |
| --- | --- |
| CAGGGCCATA | 1.02 ± 0.0042 |
| CAGGGCGTTT | 1.01 ± 0.028 |
| CAGGGCTCCC | 1.01 ± 0.02 |
| CAGGGGAAGC | 0.999 ± 0.011 |
| CAGGGGAAGG | 1.04 ± 0.053 |
| CAGGGGAGAG | 0.999 ± 0.027 |
| CAGGGGATAT | 0.993 ± 0.046 |
| CAGGGGATTG | 1.11 ± 0.14 |
| CAGGGGCCAA | 0.979 ± 0.017 |
| CAGGGGCGGC | 0.923 ± 0.064 |
| CAGGGGCTTC | 1.02 ± 0.018 |
| CAGGGGGGAA | 1.024 ± 0.0064 |
| CAGGGGGGCT | 1.04 ± 0.057 |
| CAGGGGGGTG | 1.01 ± 0.051 |
| CAGGGGGTAA | 1.01 ± 0.069 |
| CAGGGGGTTG | 0.9866 ± 0.0018 |
| CAGGGGTCGT | 1.03 ± 0.038 |
| CAGGGGTTAG | 0.9927 ± 0.0026 |
| CAGGGGTTAT | 1.01 ± 0.015 |
| CAGGGTATGA | 1.007 ± 0.0046 |
| CAGGGTCGGC | 0.993 ± 0.035 |
| CAGGGTGATA | 1.06 ± 0.071 |
| CAGGGTGGGA | 1.02 ± 0.044 |
| CAGGGTTATT | 0.995 ± 0.02 |
| CAGGGTTGTT | 0.992 ± 0.026 |

| Sequence | switch fluorescence ratio |
| --- | --- |
| CAGGTAAATT | 0.975 ± 0.03 |
| CAGGTAATAG | 1.17 ± 0.028 |
| CAGGTAGATC | 1.04 ± 0.05 |
| CAGGTATTCA | 1.0177 ± 8.3e-05 |
| CAGGTATTGA | 1 ± 0.03 |
| CAGGTCCGCT | 1.12 ± 0.036 |
| CAGGTCGTT | 1.01 ± 0.054 |
| CAGGTCTGTG | 1.025 ± 0.0022 |
| CAGGTTAAGG | 1.01 ± 0.018 |
| CAGGTTGAAG | 0.9631 ± 0.0069 |
| CAGGTTGTTT | 1.23 ± 0.45 |
| CAGGTTTAGG | 1.01 ± 0.021 |
| CAGGTTTGGT | 0.984 ± 0.021 |
| CAGGTTTTCT | 0.9968 ± 0.0018 |
| CAGTAAAGTG | 0.998 ± 0.017 |
| CAGTAATAGG | 1.07 ± 0.0075 |
| CAGTAATGCG | 0.99757 ± 0.00094 |
| CAGTACCGGA | 0.9935 ± 0.0044 |
| CAGTAGAGGT | 0.9766 ± 0.0042 |
| CAGTAGGCCA | 1.01 ± 0.032 |
| CAGTAGGTGG | 1 ± 0.028 |
| CAGTAGTCGA | 1.03 ± 0.014 |
| CAGTATTCGG | 1 ± 0.015 |
| CAGTCAAGGG | 1.01 ± 0.013 |
| CAGTCACTTG | 1.01 ± 0.029 |

| Sequence | switch fluorescence ratio |
| --- | --- |
| CAGTCCCCTT | 1.33 ± 0.44 |
| CAGTCGGGCT | 0.974 ± 0.02 |
| CAGTCGGGTT | 1.03 ± 0.079 |
| CAGTCTTATT | 0.9712 ± 0.0087 |
| CAGTCTTTTA | 0.957 ± 0.035 |
| CAGTGACAGT | 1.028 ± 0.0014 |
| CAGTGACGGT | 1.03 ± 0.021 |
| CAGTGATACG | 1.16 ± 0.036 |
| CAGTGCGCCT | 0.996 ± 0.036 |
| CAGTGCGGAG | 0.999 ± 0.016 |
| CAGTGCGGCA | 1.038 ± 0.0027 |
| CAGTGGAGCC | 1.01 ± 0.034 |
| CAGTGGGGGG | 1.01 ± 0.039 |
| CAGTGGGGTG | 0.993 ± 0.03 |
| CAGTGTAGTC | 1.02 ± 0.057 |
| CAGTGTATTT | 1.01 ± 0.038 |
| CAGTGTGTAT | 0.989 ± 0.013 |
| CAGTGTTATG | 0.97 ± 0.014 |
| CAGTGTTGGC | 1 ± 0.016 |
| CAGTTCGGAA | 1.07 ± 0.027 |
| CAGTTGCGCA | 0.996 ± 0.034 |
| CAGTTGGGTA | 0.98 ± 0.028 |
| CAGTTTAGTT | 0.987 ± 0.072 |
| CAGTTTCGGG | 1.004 ± 0.01 |
| CAGTTTGTTC | 0.987 ± 0.022 |

| Sequence | switch fluorescence ratio |
| --- | --- |
| CAGTTTTATT | 0.992 ± 0.022 |
| CATAAACGCG | 1.003 ± 0.0088 |
| CATAAAGGAG | 1.01 ± 0.016 |
| CATAACGCCT | 1.09 ± 0.027 |
| CATAACGGTT | 0.98 ± 0.025 |
| CATAACTTGG | 1.011 ± 0.002 |
| CATAAGATGC | 1.03 ± 0.027 |
| CATAAGGGTT | 1.13 ± 0.17 |
| CATAAGGTCG | 1.03 ± 0.083 |
| CATAATAACC | 1.03 ± 0.018 |
| CATAATATTG | 0.991 ± 0.011 |
| CATACAGGGG | 1.44 ± 0.067 |
| CATACCCAAA | 1.05 ± 0.039 |
| CATACGGGGG | 1.03 ± 0.025 |
| CATACGTGCG | 1 ± 0.042 |
| CATAGGGGCC | 0.9643 ± 0.0074 |
| CATAGGTAAG | 0.9837 ± 0.0022 |
| CATAGTTTGC | 0.9979 ± 0.0053 |
| CATATAATTG | 0.976 ± 0.014 |
| CATATAGAGG | 1.01 ± 0.054 |
| CATATATTTT | 1.04 ± 0.058 |
| CATATCGGAA | 1.187 ± 0.0077 |
| CATATGGTAT | 1.02 ± 0.037 |
| CATATTATGA | 0.987 ± 0.012 |
| CATATTCTTT | 0.979 ± 0.016 |
